Test results from PMC1277818, “Substrate specificity analysis of protein kinase complex Dbf2-Mob1 by peptide library and proteome array screening” (BMC Biochemistry, 2005).

T1: FHHDbf2-H6Mob1TM9 (Saccharomyces cerevisiae, UniProt P22204+P40484)
T1 construct: made in house; host or cells: Hi5 insect cells (baculovirus)
T1 sequence (P22204 1-572): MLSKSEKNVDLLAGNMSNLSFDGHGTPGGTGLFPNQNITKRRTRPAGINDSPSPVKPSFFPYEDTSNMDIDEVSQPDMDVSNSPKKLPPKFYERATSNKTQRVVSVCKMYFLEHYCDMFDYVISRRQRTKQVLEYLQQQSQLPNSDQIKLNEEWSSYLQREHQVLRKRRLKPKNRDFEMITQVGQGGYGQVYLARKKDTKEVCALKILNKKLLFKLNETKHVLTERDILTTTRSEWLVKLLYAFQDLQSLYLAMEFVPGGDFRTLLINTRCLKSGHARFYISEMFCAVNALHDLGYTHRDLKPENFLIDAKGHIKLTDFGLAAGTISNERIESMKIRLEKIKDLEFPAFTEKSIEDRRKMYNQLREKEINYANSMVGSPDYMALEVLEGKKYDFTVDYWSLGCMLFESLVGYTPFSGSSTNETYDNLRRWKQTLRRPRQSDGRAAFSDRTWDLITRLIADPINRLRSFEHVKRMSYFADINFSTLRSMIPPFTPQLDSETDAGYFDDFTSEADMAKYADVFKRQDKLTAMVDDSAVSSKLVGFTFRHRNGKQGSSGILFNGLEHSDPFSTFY
T1 sequence (P40484 1-314 partner): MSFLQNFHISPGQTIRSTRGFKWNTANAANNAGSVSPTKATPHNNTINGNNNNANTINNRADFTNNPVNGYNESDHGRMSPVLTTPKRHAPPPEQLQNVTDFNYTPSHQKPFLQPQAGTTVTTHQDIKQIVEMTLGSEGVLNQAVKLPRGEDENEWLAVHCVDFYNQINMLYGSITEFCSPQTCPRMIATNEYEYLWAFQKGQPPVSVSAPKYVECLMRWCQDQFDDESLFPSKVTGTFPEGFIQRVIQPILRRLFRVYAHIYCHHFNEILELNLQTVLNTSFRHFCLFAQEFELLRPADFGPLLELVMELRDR

B1: YMR239C: GST fusion yeast protein on proteome chip (protein, UniProt Q02555 1-471, looked up)
Ribonuclease 3: MGSKVAGKKKTQNDNKLDNENGSQQRENINTKTLLKGNLKISNYKYLEVIQLEHAVTKLVESYNKIIELSPNLVAYNEAVNNQDRVPVQILPSLSRYQLKLAAELKTLHDLKKDAILTEITDYENEFDTEQKQPILQEISKADMEKLEKLEQVKREKREKIDVNVYENLNEKEDEEEDEGEDSYDPTKAGDIVKATKWPPKLPEIQDLAIRARVFIHKSTIKDKVYLSGSEMINAHNERLEFLGDSILNSVMTLIIYNKFPDYSEGQLSTLRMNLVSNEQIKQWSIMYNFHEKLKTNFDLKDENSNFQNGKLKLYADVFEAYIGGLMEDDPRNNLPKIRKWLRKLAKPVIEEATRNQVALEKTDKLDMNAKRQLYSLIGYASLRLHYVTVKKPTAVDPNSIVECRVGDGTVLGTGVGRNIKIAGIRAAENALRDKKMLDFYAKQRAAIPRSESVLKDPSQKNKKRKFSDTS
modifications: GST fusion
notes: GST fusion yeast protein on proteome chip
B2: YNL101W: GST fusion yeast protein on proteome chip (protein, UniProt P50944 1-713, looked up)
Vacuolar amino acid …: MVTNNGDGEHLGIRRNGNLRHPSNNMKIPRRAQSTVLNSNPFYSRKYSMSTLTPRDICRSVDSRVFVDMSSPNFQTLEDPHRDEIINSVRLNYLNSSKRSSVSHGNEAIPRVNPTKNSSASTIAAANVDSDDDETNLSSAGGDITHDIYKLVKAEDPKRLRRPRSMENVTPKIEHHTKLSSASGLNVPGGFRREFIVNKKRQEHQLNDSASSDFTSHESDSINQSSPSSNQDIDKVPFLTRNFLEFLYVFGHFAGESFEDDFIPDSSNMMIRGEDERSALLSRPDHMKVLPSAKGTTSTKKVFLILLKSFIGTGVLFLPNAFHNGGLFFSVSMLAFFGIYSYWCYYILVQAKSSCGVSSFGDIGLKLYGPWMRIIILFSLVITQVGFSGAYMIFTAKNLQAFLDNVFHVGVLPLSYLMVFQTIIFIPLSFIRNISKLSLPSLLANFFIMAGLVIVIIFTAKRLFFDLMGTPAMGVVYGLNADRWTLFIGTAIFAFEGIGLIIPVQDSMRNPEKFPLVLALVILTATILFISIATLGYLAYGSNVQTVILLNLPQSNIFVNLIQLFYSIAIMLSTPLQLFPAIKIIENKFFPKFTKIYVKHDDLTTRVELRPNSGKLNWKIKWLKNFIRSIIVIIVVSIAYFGSDNLDKFVSVIGSLACIPLVYIYPSMLHLRGNSLPETKGEFWRFKPMLDTILIFFGIASMLYTSYQSIFGV
modifications: GST tag
notes: as for B1
B3: YBR118W: GST fusion yeast protein on proteome chip (protein, UniProt P02994 2-458, looked up)
Elongation factor 1-alpha: GKEKSHINVVVIGHVDSGKSTTTGHLIYKCGGIDKRTIEKFEKEAAELGKGSFKYAWVLDKLKAERERGITIDIALWKFETPKYQVTVIDAPGHRDFIKNMITGTSQADCAILIIAGGVGEFEAGISKDGQTREHALLAFTLGVRQLIVAVNKMDSVKWDESRFQEIVKETSNFIKKVGYNPKTVPFVPISGWNGDNMIEATTNAPWYKGWEKETKAGVVKGKTLLEAIDAIEQPSRPTDKPLRLPLQDVYKIGGIGTVPVGRVETGVIKPGMVVTFAPAGVTTEVKSVEMHHEQLEQGVPGDNVGFNVKNVSVKEIRRGNVCGDAKNDPPKGCASFNATVIVLNHPGQISAGYSPVLDCHTAHIACRFDELLEKNDRRSGKKLEDHPKFLKSGDAALVKFVPSKPMCVEAFSEYPPLGRFAVRDMRQTVAVGVIKSVDKTEKAAKVTKAAQKAAKK
modifications: GST tag
notes: as for B1
B4: YNR006W: GST fusion yeast protein on proteome chip (protein, UniProt P40343 1-622, looked up)
Vacuolar protein …: MSVSTPSELDALIEQATSESIPNGDLDLPIALEISDVLRSRRVNPKDSMRCIKKRILNTADNPNTQLSSWKLTNICVKNGGTPFIKEICSREFMDTMEHVILREDSNEELSELVKTILYELYVAFKNDSQLNYVAKVYDKLISRGIKFPEKLTLSNSPTAMFDSKTPADWIDSDACMICSKKFSLLNRKHHCRSCGGVFCQEHSSNSIPLPDLGIYEPVRVCDSCFEDYDLKRHDDSKKSKKHRHKRKKDRDYSTPEDEEELIRKAIELSLKESRNSASSEPIVPVVESKNEVKRQEIEEEEDPDLKAAIQESLREAEEAKLRSERQKASRQMQPQQPSPQPQPIHSVDLSDEEKDSIYMFASLVEKMKSRPLNEILEDSKLQNLAQRVFASKARLNYALNDKAQKYNTLIEMNGKISEIMNIYDRLLEQQLQSINLSQQYTLPQVPSDPYNYLTENVQNPAESYQTPPLQQLSSHQYKPQQDVSRQQSVKANSSPTTNIDHLKTIDVTPHAQQKPQSHVELAPSDPPYPKEEAEDEGTQAVQDEESSTQESRERPYPVETENGETSINKRPQGITRYDFPTVPARKFVQPESTVPLPASSSEIPIKEERPPSPQEELLIEL
modifications: GST fusion
notes: as for B1
B5: YDL019C: GST fusion yeast protein on proteome chip (protein, UniProt Q12451 2-1283, looked up)
Oxysterol-binding protein …: SREDLSIAEDLNQVSKPLLKVKLLEVLGQGDFKHLKALVDNEFQPKDDPSVQQVLNLILHYAVQVAPILLIKEIVAHWVDQVGDEKSSSKSDDGIHLDLNYQDENGNTPLHLAAAQSRSDVISFLLSQKSINDCVKNKAHQQPLDMCKDLNVAQMIQLKRDDYFLETVHSLRAAMNKRDFSKLDSIWKNPRNLNLLDINGIDPETGTTLLYEYSQKKDIEMCQWLLKHGAEATVKDGKGRSPLDLVKNIKLPAKPSNNVTPEIKLKNLLEKNLREQAIVHEDVASSKPPTYKGFLKKWTNFAHGYKLRWFILSGDGNLSYYKDQSHVDRPRGTLKVSTCRLHIDSSEKLNFELLGGITGTTRWRLKGNHPIETTRWVNAIQSAIRFAKDKEILNKKKAVPPSLALKNKSPALISHSKTQGSLPEASQYYQHTLHKEVIQPSSVSLYRRPSNNLSVVSSEIQLNDNLTESGKRFVSKMIENRLDGSKTPVGVHTGSALQRVRSSNTLKSNRSMQSGSGVASPIDKVPNGANLSQSNTTTGSTASLSDNNYIDNFEGDEANSDDEEEDLGINFDRDEEYIKAQYGPYKEKLDMYEQAISIELSSLIELIEQEEPSPEVWLTIKKSLINTSTIFGKLKDLTYKRDKRLVDMVSKQGDVNNVWVQSVKELEMELSNKTERLASIDKERRGLKKILHKKLLESHATAGNKESLENDKEQESDTTASTLGQIAKFISATKEEDEASDADEFYDAAELVDEVTELTEAHPEISTAAAPKHAPPPVPNETDNDSQYVQDEKSKIESNVEKTSQKFEKQNNLVTEDEPKTDQSLKNFKAEDKESQVKEKTKEIASSVIGEKTIVAVTTVQKRKEEYLLKEGSYLGYEDGIRKRLSMDKDDRPKISLWAVLKSMVGKDMTRMTLPVTFNEPTSLLQRVAEDLEYSELLDQAATFEDSTLRTLYVAAFTASSYASTTKRVAKPFNPLLGETFEYSRPDKQYRFFTEQVSHHPPISATWTESPRWDFWGESFVDTKFNGRSFNVKHLGLWHIKLRPNDNEKEELYTWKKPNNTVIGILIGNPQVDNHGEVNVVNHTTGDHCKLYFKARGWRSSGAYEITGEVYNKKKQKVWILGGHWNEAIFAKKVVKDGDLSLEKTRTAASAGNGPTDDGTKFLIWKANDRPEEPFNLTPFAITLNAPQPHLLPWLPPTDTRLRPDQRAMEDGRYDEAGDEKFRVEEKQRAARRKREENNLEYHPQWFVRDTHPITKAKYWRYTGKYWVKRRDHDLKDCGDIF
modifications: GST fusion
notes: as for B1
B6: YIL135C: GST fusion yeast protein on proteome chip (protein, UniProt P40463 1-436, looked up)
Protein VHS2: MDTSNHNQDHDSHVAAQRENDNNYMPPSPSMSESSMIFERNVEDPSYLYKTVSNNAANSLSRQSSRTSLFNHNNSSNRNFHNLSQRSSAVNLHLQPSRTNESIASYQTYNPDFVVQTPLDHRRTLENFVPPALDAGCSIVTDDTTGLDDVDMVYSRRPSTIGLDRALGRTRSLSSQSFDNETSPAHPRSPNDHGSRLLRFYSYADMLSDDNNNNVSNATSTSSTANPLRRPPMQGHYSFSSSLLNSPSHLPSPPSASASPPQHMNFTNPFIISRRYSNTTINNANGGTSAGSTTGAALSRSPSNQQYLLKQQRSPSGSARSRRNSNRPGSAANIMIGKPKSKFHMESSGSEGFSSEEEDNTMIERDKLNLKQKLQSQLAQPPSIANMVNDNHNNTNKHKNTINNNIKNSPAFTNSNPSSKSNSNSTITSMNPDTTK
modifications: GST tag
notes: as for B1

Target: T1, FHHDbf2-H6Mob1TM9
Assay: Yeast proteome chip assay
Assay type: biochemical
Settings: Table 3; GST fusion proteins on proteome chip, [γ-33P]ATP, chips in duplicate, computer analysis
Protocol: The relatively low sequence complexity of the Dbf2 phosphorylation motif diminished the power of using genome-wide bioinformatics screens to identify putative substrates. Accordingly, we carried out a proteome array screen to identify putative yeast substrates. […] After taking into account the proteins phosphorylated in the negative controls, 67 proteins were determined to be putative Dbf2-Mob1 substrates (Table 3).
Yeast proteome microarrays were prepared as previously described. Overexpressed GST-tagged yeast proteins were purified from ~4,400 yeast strains and spotted on slides. To determine the optimal amount of kinase to use for probing proteome chips, we performed trial assays as described (J. Ptacek et al., submitted). […] The full proteome array was probed with 4 μl ^FHHDbf2-^H6Mob1^TM9 in 200 μl of DKB supplemented with [γ-^33P]ATP. As a control, ^FHHDbf2(N305A)-^H6Mob1^TM9 was used to probe the proteome array. […] To control for autophosphorylated proteins, the proteome array was probed with 200 μl of DKB supplemented with [γ-^33P]ATP. Proteome chips were assayed in duplicate in each case. Data analysis was performed as described (J. Ptacek et al., submitted). Briefly, signals were analyzed by a computer algorithm designed to normalize background and identify signals as positive if 3 of 4 spots (each protein is spotted twice on each slide and each kinase or control was tested on 2 slides) were 2 standard deviations above background and the fourth spot was 1.5 standard deviations above background.

| Molecule | Slide Signal (after normalization) |
| --- | --- |
| B1 | 1.593 |
| B2 | 2.1486 |
| B3 | 2.619 |
| B4 | 1.1429 |
| B5 | 0.9962 |
| B6 | 1.116 |

Same assay, conditions: Table 4, the 25 proteins with highest signal relative to protein amount; [γ-33P]ATP, chips in duplicate

| Molecule | Slide Signal (after normalization) |
| --- | --- |
| B1 | 1.593 |
| B2 | 2.1486 |
| B3 | 2.619 |
| B4 | 1.1429 |
| B5 | 0.9962 |
| B6 | 1.116 |
